Measured values reported in US20220403001A1, “PDE5 DERIVED REGULATORY CONSTRUCTS AND METHODS OF USE IN IMMUNOTHERAPY” (Obsidian Therapeutics, Inc., priority 2018, published 2022).

Legend:
hPDE5 mutants [1] = assay: GFP FACS analysis of hPDE5 mutant library clones in NIH3T3 cell pools; details: experiment 1
Description: (§1) These constructs were packaged into lentivirus, transduced into NIH3T3 cells and select stable cell pools were derived as described below. […] Lentiviral stocks were used for transduction of NIH3T3 cells and subsequent cell pool selection. The day before transduction, NIH3T3 cells (1.8×10^6) were seeded in a T-25 flask and allowed to reach 60-70% confluency (˜1 day). The growth medium in the T-25 flask was then replaced with 1 mL virus (quickly thawed in a 37° C. water bath) and 5 μg/mL polybrene. […] Transduction medium was removed the following day and replaced with 5 mL fresh medium. At 48 hr after transduction, the medium was replaced with media containing 1 μg/mL puromycin. This puromycin medium was replaced every 3-4 days until cell pools were established (˜2 weeks).
(§2) The mean fluorescence intensity (MFI) of GFP at 100 μM concentration treatment was set as 100% hPDE5 stabilization effect (HPE), while DMSO treatment was set as 0% effect (ZPE) of hPDE5 stabilization. The effect of the compound on hPDE5 stabilization was calculated based on the following formula: % PDE5 stabilization effect=(MFI-ZPE)/(HPE-ZPE)×100.
(§3) Plots of the % effect versus concentration were generated with Graphpad Prism 5 and EC50 values were calculated using a four-parameter nonlinear regression model.
(§4) Select PDE5 clones from both experiment 1 and experiment 2 were directly compared. […] The stabilization ratio was calculated as the fold change in GFP intensity in ligand treated samples compared to treatment with DMSO (i.e. in the absence of ligand) with the same construct.

hPDE5 mutants [2] = target: hPDE5 mutants (Homo sapiens, UniProt O76074); assay: as above; details: for MFI 10 μM VDF / MFI DMSO: GFP, NIH3T3 cell pools; for MFI 10 μM VDF: 10 μM vardenafil 24 hr; for MFI DMSO: no ligand (DMSO)
Description: as §1, §2, §3, §4

LibC000020: hPDE5 (Amino acid 535-860 of WT, A722V, F755L, M760I), DD generated by random mutagenesis
GFP FACS analysis (MFI) (hPDE5 mutants [1]; DMSO (no ligand), SDF series): 338 | GFP FACS analysis (MFI) (hPDE5 mutants [1]; DMSO (no ligand), TDF series): 243 | GFP FACS analysis (MFI) (hPDE5 mutants [1]; DMSO (no ligand), VDF series): 238 | GFP FACS analysis (MFI) (hPDE5 mutants [1]; SDF 1.235 μM): 371 | Percent stabilization effect (hPDE5 mutants [1]; SDF 1.235 μM): 18.9% | Percent stabilization effect (hPDE5 mutants [1]; SDF 3.704 μM): 21.7% | Percent stabilization effect (hPDE5 mutants [1]; SDF 11.111 μM): 20.0% | Percent stabilization effect (hPDE5 mutants [1]; SDF 33.333 μM): 39.4% | Percent stabilization effect (hPDE5 mutants [1]; SDF 100 μM (set as 100%)): 100.0% | GFP FACS analysis (MFI) (hPDE5 mutants [1]; TDF 1.235 μM): 337 | Percent stabilization effect (hPDE5 mutants [1]; TDF 1.235 μM): 35.3% | Percent stabilization effect (hPDE5 mutants [1]; TDF 3.704 μM): 37.2% | Percent stabilization effect (hPDE5 mutants [1]; TDF 11.111 μM): 48.1% | Percent stabilization effect (hPDE5 mutants [1]; TDF 33.333 μM): 74.1% | Percent stabilization effect (hPDE5 mutants [1]; TDF 100 μM (set as 100%)): 100.0% | Percent stabilization effect (hPDE5 mutants [1]; VDF 1.235 μM): 7.1% | Percent stabilization effect (hPDE5 mutants [1]; VDF 3.704 μM): 21.9% | Percent stabilization effect (hPDE5 mutants [1]; VDF 11.111 μM): 51.2% | Percent stabilization effect (hPDE5 mutants [1]; VDF 33.333 μM): 84.3% | Percent stabilization effect (hPDE5 mutants [1]; VDF 100 μM (set as 100%)): 100.0% | MFI 10 μM VDF (hPDE5 mutants [2]; experiment 1): 1459 | MFI DMSO (hPDE5 mutants [2]; experiment 1): 332 | GFP FACS analysis (MFI) (hPDE5 mutants [2]; SDF 3.704 μM, experiment 1): 376 | GFP FACS analysis (MFI) (hPDE5 mutants [2]; SDF 11.111 μM, experiment 1): 373 | GFP FACS analysis (MFI) (hPDE5 mutants [2]; SDF 33.333 μM, experiment 1): 407 | GFP FACS analysis (MFI) (hPDE5 mutants [2]; SDF 100 μM, experiment 1): 513 | GFP FACS analysis (MFI) (hPDE5 mutants [2]; TDF 3.704 μM, experiment 1): 342 | GFP FACS analysis (MFI) (hPDE5 mutants [2]; TDF 11.111 μM, experiment 1): 371 | GFP FACS analysis (MFI) (hPDE5 mutants [2]; TDF 33.333 μM, experiment 1): 440 | GFP FACS analysis (MFI) (hPDE5 mutants [2]; TDF 100 μM, experiment 1): 509 | GFP FACS analysis (MFI) (hPDE5 mutants [2]; VDF 1.235 μM, experiment 1): 399 | GFP FACS analysis (MFI) (hPDE5 mutants [2]; VDF 3.704 μM, experiment 1): 733 | GFP FACS analysis (MFI) (hPDE5 mutants [2]; VDF 11.111 μM, experiment 1): 1395 | GFP FACS analysis (MFI) (hPDE5 mutants [2]; VDF 33.333 μM, experiment 1): 2144 | GFP FACS analysis (MFI) (hPDE5 mutants [2]; VDF 100 μM, experiment 1): 2499 | Fluorescence intensity Sildenafil (hPDE5 mutants [2]; median GFP fluorescence by FACS, 10 μM Sildenafil, direct comparison of clones): 513 | Fluorescence intensity Tadalafil (hPDE5 mutants [2]; median GFP fluorescence by FACS, 10 μM Tadalafil, direct comparison of clones): 509 | Fluorescence intensity Vardenafil (hPDE5 mutants [2]; median GFP fluorescence by FACS, 10 μM Vardenafil, direct comparison of clones): 2499 | Fluorescence intensity DMSO (hPDE5 mutants [2]; median GFP fluorescence by FACS, vehicle DMSO (no ligand), direct comparison of clones): 273

LibC000013: hPDE5 (Amino acid 535-860 of WT, L781P), DD generated by random mutagenesis
GFP FACS analysis (MFI) (hPDE5 mutants [1]; DMSO (no ligand), SDF series): 943 | GFP FACS analysis (MFI) (hPDE5 mutants [1]; DMSO (no ligand), TDF series): 847 | GFP FACS analysis (MFI) (hPDE5 mutants [1]; DMSO (no ligand), VDF series): 854 | GFP FACS analysis (MFI) (hPDE5 mutants [1]; SDF 1.235 μM): 2076 | GFP FACS analysis (MFI) (hPDE5 mutants [1]; TDF 1.235 μM): 3688 | Stabilization ratio (hPDE5 mutants [2]; GFP intensity 10 μM vardenafil vs DMSO, experiment 1): 1.5 | Destabilizing mutation co-efficient (hPDE5 mutants [2]; GFP intensity mutant vs PDE5 wildtype construct in absence of ligand, experiment 1): 0.09 | MFI 10 μM VDF (hPDE5 mutants [2]; experiment 1): 723 | MFI DMSO (hPDE5 mutants [2]; experiment 1): 498 | GFP FACS analysis (MFI) (hPDE5 mutants [2]; SDF 3.704 μM, experiment 1): 3467 | GFP FACS analysis (MFI) (hPDE5 mutants [2]; SDF 11.111 μM, experiment 1): 5539 | GFP FACS analysis (MFI) (hPDE5 mutants [2]; SDF 33.333 μM, experiment 1): 7404 | GFP FACS analysis (MFI) (hPDE5 mutants [2]; SDF 100 μM, experiment 1): 8260 | GFP FACS analysis (MFI) (hPDE5 mutants [2]; TDF 3.704 μM, experiment 1): 6275 | GFP FACS analysis (MFI) (hPDE5 mutants [2]; TDF 11.111 μM, experiment 1): 8085 | GFP FACS analysis (MFI) (hPDE5 mutants [2]; TDF 33.333 μM, experiment 1): 8353 | GFP FACS analysis (MFI) (hPDE5 mutants [2]; TDF 100 μM, experiment 1): 7614 | GFP FACS analysis (MFI) (hPDE5 mutants [2]; VDF 1.235 μM, experiment 1): 6773 | GFP FACS analysis (MFI) (hPDE5 mutants [2]; VDF 3.704 μM, experiment 1): 7330 | GFP FACS analysis (MFI) (hPDE5 mutants [2]; VDF 11.111 μM, experiment 1): 7393 | GFP FACS analysis (MFI) (hPDE5 mutants [2]; VDF 33.333 μM, experiment 1): 7308 | GFP FACS analysis (MFI) (hPDE5 mutants [2]; VDF 100 μM, experiment 1): 7207
